Tested on: Escherichia coli TOP10
Test: shrunken log2 fold change of peptide-encoding DNA abundance (4.5 h post-induction vs induction); higher = less antimicrobial activity (less host growth inhibition)
Details: time post-induction: 4.5 h; library: site-saturation at positions 5, 18, 19, 20
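Also: peptides expressed intracellularly from a pBAD plasmid library in pooled LB shake-flask culture, induced with 0.3% L-arabinose, DNA abundance read by NGS, three biological replicates, DESeq2 with apeglm shrinkage.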

For RRIRRRPPRLPRPRPRPTKNPRP, the “shrunken log2 fold change” value was 0.395.

For RRIRRRPPRLPRPRPRPTKPPRP, the “shrunken log2 fold change” value was 0.541.

With RRIRRRPPRLPRPRPRPTLNPRP the “shrunken log2 fold change” value was 0.511.

With RRIRRRPPRLPRPRPRPTMNPRP the “shrunken log2 fold change” value was -0.0748.

RRIRRRPPRLPRPRPRPTMQPRP was tested, and the “shrunken log2 fold change” value was 0.275.

For RRIRRRPPRLPRPRPRPTNAPRP, the “shrunken log2 fold change” value was 0.158.

For RRIRRRPPRLPRPRPRPTNYPRP, the “shrunken log2 fold change” value was -0.0945.

In the case of RRIRRRPPRLPRPRPRPTRDPRP, the “shrunken log2 fold change” value is reported as 0.64.

For RRIRRRPPRLPRPRPRPTRGPRP, the “shrunken log2 fold change” value was 0.661.

In the case of RRIRRRPPRLPRPRPRPTRLPRP, the “shrunken log2 fold change” value is reported as 0.612.

RRIRRRPPRLPRPRPRPTRRPRP was tested, and the “shrunken log2 fold change” value was 0.853.

With RRIRRRPPRLPRPRPRPTSKPRP the “shrunken log2 fold change” value was 0.162.

In the case of RRIRRRPPRLPRPRPRPTTPPRP, the “shrunken log2 fold change” value is reported as 0.463.

For RRIRRRPPRLPRPRPRPTWLPRP, the “shrunken log2 fold change” value was 0.633.

With RRIRRRPPRLPRPRPRPTWWPRP the “shrunken log2 fold change” value was 0.57.

RRIRRRPPRLPRPRPRPTYTPRP was tested, and the “shrunken log2 fold change” value was -0.214.

With RRIRRRPPRLPRPRPRPVALPRP the “shrunken log2 fold change” value was 0.225.

With RRIRRRPPRLPRPRPRPVCKPRP the “shrunken log2 fold change” value was -0.012.

For RRIRRRPPRLPRPRPRPVCQPRP, the “shrunken log2 fold change” value was 0.179.

For RRIRRRPPRLPRPRPRPVEDPRP, the “shrunken log2 fold change” value was 0.355.

For RRIRRRPPRLPRPRPRPVEPPRP, the “shrunken log2 fold change” value was -0.0837.

RRIRRRPPRLPRPRPRPVFCPRP was tested, and the “shrunken log2 fold change” value was 0.291.

For RRIRRRPPRLPRPRPRPVFKPRP, the “shrunken log2 fold change” value was -0.0974.

For RRIRRRPPRLPRPRPRPVFRPRP, the “shrunken log2 fold change” value was 0.226.

With RRIRRRPPRLPRPRPRPVGCPRP the “shrunken log2 fold change” value was 0.472.

RRIRRRPPRLPRPRPRPVGPPRP was tested, and the “shrunken log2 fold change” value was -0.0193.

In the case of RRIRRRPPRLPRPRPRPVHNPRP, the “shrunken log2 fold change” value is reported as 0.0641.

For RRIRRRPPRLPRPRPRPVHQPRP, the “shrunken log2 fold change” value was 0.208.

For RRIRRRPPRLPRPRPRPVHVPRP, the “shrunken log2 fold change” value was 0.0562.

With RRIRRRPPRLPRPRPRPVKAPRP the “shrunken log2 fold change” value was 0.148.

With RRIRRRPPRLPRPRPRPVKDPRP the “shrunken log2 fold change” value was -0.0534.

RRIRRRPPRLPRPRPRPVKFPRP was tested, and the “shrunken log2 fold change” value was 0.0517.

In the case of RRIRRRPPRLPRPRPRPVKLPRP, the “shrunken log2 fold change” value is reported as -0.0474.

In the case of RRIRRRPPRLPRPRPRPVLKPRP, the “shrunken log2 fold change” value is reported as 0.267.

In the case of RRIRRRPPRLPRPRPRPVLMPRP, the “shrunken log2 fold change” value is reported as 0.146.

For RRIRRRPPRLPRPRPRPVMTPRP, the “shrunken log2 fold change” value was 0.573.

RRIRRRPPRLPRPRPRPVPDPRP was tested, and the “shrunken log2 fold change” value was 0.173.

For RRIRRRPPRLPRPRPRPVPHPRP, the “shrunken log2 fold change” value was 0.449.

In the case of RRIRRRPPRLPRPRPRPVPIPRP, the “shrunken log2 fold change” value is reported as 0.137.

RRIRRRPPRLPRPRPRPVPSPRP was tested, and the “shrunken log2 fold change” value was 0.488.

For RRIRRRPPRLPRPRPRPVRKPRP, the “shrunken log2 fold change” value was -0.0548.

With RRIRRRPPRLPRPRPRPVRNPRP the “shrunken log2 fold change” value was 0.146.

RRIRRRPPRLPRPRPRPVRSPRP was tested, and the “shrunken log2 fold change” value was 0.551.

With RRIRRRPPRLPRPRPRPVTVPRP the “shrunken log2 fold change” value was 0.124.

In the case of RRIRRRPPRLPRPRPRPVVDPRP, the “shrunken log2 fold change” value is reported as 0.372.

In the case of RRIRRRPPRLPRPRPRPVWSPRP, the “shrunken log2 fold change” value is reported as -0.103.

In the case of RRIRRRPPRLPRPRPRPVYNPRP, the “shrunken log2 fold change” value is reported as -0.154.

RRIRRRPPRLPRPRPRPVYRPRP was tested, and the “shrunken log2 fold change” value was -0.235.

For RRIRRRPPRLPRPRPRPVYWPRP, the “shrunken log2 fold change” value was 0.303.

For RRIRRRPPRLPRPRPRPWAKPRP, the “shrunken log2 fold change” value was 0.0786.

With RRIRRRPPRLPRPRPRPWALPRP the “shrunken log2 fold change” value was -0.0259.

RRIRRRPPRLPRPRPRPWCQPRP was tested, and the “shrunken log2 fold change” value was -0.26.

In the case of RRIRRRPPRLPRPRPRPWCSPRP, the “shrunken log2 fold change” value is reported as -0.0123.

RRIRRRPPRLPRPRPRPWDIPRP was tested, and the “shrunken log2 fold change” value was 0.0194.

For RRIRRRPPRLPRPRPRPWDQPRP, the “shrunken log2 fold change” value was 0.0792.

In the case of RRIRRRPPRLPRPRPRPWETPRP, the “shrunken log2 fold change” value is reported as 0.00928.

With RRIRRRPPRLPRPRPRPWFIPRP the “shrunken log2 fold change” value was 0.0648.

RRIRRRPPRLPRPRPRPWGVPRP was tested, and the “shrunken log2 fold change” value was 0.405.

With RRIRRRPPRLPRPRPRPWGYPRP the “shrunken log2 fold change” value was -0.275.

RRIRRRPPRLPRPRPRPWHDPRP was tested, and the “shrunken log2 fold change” value was 0.0389.

With RRIRRRPPRLPRPRPRPWKGPRP the “shrunken log2 fold change” value was -0.209.

RRIRRRPPRLPRPRPRPWKQPRP was tested, and the “shrunken log2 fold change” value was -0.0204.

For RRIRRRPPRLPRPRPRPWKRPRP, the “shrunken log2 fold change” value was -0.0441.

For RRIRRRPPRLPRPRPRPWMAPRP, the “shrunken log2 fold change” value was 0.0421.

For RRIRRRPPRLPRPRPRPWMVPRP, the “shrunken log2 fold change” value was -0.151.

RRIRRRPPRLPRPRPRPWNWPRP was tested, and the “shrunken log2 fold change” value was 2.98.

In the case of RRIRRRPPRLPRPRPRPWPCPRP, the “shrunken log2 fold change” value is reported as 0.133.

With RRIRRRPPRLPRPRPRPWTMPRP the “shrunken log2 fold change” value was -0.257.

RRIRRRPPRLPRPRPRPWVAPRP was tested, and the “shrunken log2 fold change” value was 0.219.

For RRIRRRPPRLPRPRPRPWVSPRP, the “shrunken log2 fold change” value was -0.0738.

With RRIRRRPPRLPRPRPRPWWCPRP the “shrunken log2 fold change” value was 4.82.

With RRIRRRPPRLPRPRPRPWYGPRP the “shrunken log2 fold change” value was -0.263.

For RRIRRRPPRLPRPRPRPYAGPRP, the “shrunken log2 fold change” value was -0.137.

With RRIRRRPPRLPRPRPRPYAIPRP the “shrunken log2 fold change” value was -0.252.

In the case of RRIRRRPPRLPRPRPRPYANPRP, the “shrunken log2 fold change” value is reported as -0.0552.

With RRIRRRPPRLPRPRPRPYAQPRP the “shrunken log2 fold change” value was -0.252.

For RRIRRRPPRLPRPRPRPYCAPRP, the “shrunken log2 fold change” value was -0.0524.

RRIRRRPPRLPRPRPRPYCHPRP was tested, and the “shrunken log2 fold change” value was -0.792.

RRIRRRPPRLPRPRPRPYDHPRP was tested, and the “shrunken log2 fold change” value was -0.149.

With RRIRRRPPRLPRPRPRPYDPPRP the “shrunken log2 fold change” value was 0.0185.

With RRIRRRPPRLPRPRPRPYETPRP the “shrunken log2 fold change” value was 0.119.

For RRIRRRPPRLPRPRPRPYEWPRP, the “shrunken log2 fold change” value was 0.00618.

With RRIRRRPPRLPRPRPRPYFDPRP the “shrunken log2 fold change” value was -0.823.

With RRIRRRPPRLPRPRPRPYFIPRP the “shrunken log2 fold change” value was -0.432.

For RRIRRRPPRLPRPRPRPYFLPRP, the “shrunken log2 fold change” value was -0.542.

For RRIRRRPPRLPRPRPRPYFVPRP, the “shrunken log2 fold change” value was -0.381.

In the case of RRIRRRPPRLPRPRPRPYFYPRP, the “shrunken log2 fold change” value is reported as -0.683.

In the case of RRIRRRPPRLPRPRPRPYGNPRP, the “shrunken log2 fold change” value is reported as -0.219.

In the case of RRIRRRPPRLPRPRPRPYGYPRP, the “shrunken log2 fold change” value is reported as 0.0179.

With RRIRRRPPRLPRPRPRPYHGPRP the “shrunken log2 fold change” value was -0.169.

With RRIRRRPPRLPRPRPRPYIMPRP the “shrunken log2 fold change” value was -0.733.

With RRIRRRPPRLPRPRPRPYKDPRP the “shrunken log2 fold change” value was -0.249.

RRIRRRPPRLPRPRPRPYKIPRP was tested, and the “shrunken log2 fold change” value was -0.158.

With RRIRRRPPRLPRPRPRPYNIPRP the “shrunken log2 fold change” value was -0.464.

RRIRRRPPRLPRPRPRPYPFPRP was tested, and the “shrunken log2 fold change” value was -0.238.

With RRIRRRPPRLPRPRPRPYPIPRP the “shrunken log2 fold change” value was -0.269.

With RRIRRRPPRLPRPRPRPYPPPRP the “shrunken log2 fold change” value was -0.176.

RRIRRRPPRLPRPRPRPYRFPRP was tested, and the “shrunken log2 fold change” value was -0.15.

With RRIRRRPPRLPRPRPRPYRSPRP the “shrunken log2 fold change” value was -0.0969.

For RRIRRRPPRLPRPRPRPYVAPRP, the “shrunken log2 fold change” value was -0.361.

With RRIRRRPPRLPRPRPRPYWHPRP the “shrunken log2 fold change” value was -0.484.

RRIRRRPPRLPRPRPRPYWPPRP was tested, and the “shrunken log2 fold change” value was -0.377.

For RRIRRRPPRLPRPRPRPYYKPRP, the “shrunken log2 fold change” value was -0.677.

RRIRSRPPRLPRPRPRPAAPPRP was tested, and the “shrunken log2 fold change” value was 0.66.

For RRIRSRPPRLPRPRPRPAARPRP, the “shrunken log2 fold change” value was 0.247.

In the case of RRIRSRPPRLPRPRPRPAAWPRP, the “shrunken log2 fold change” value is reported as 0.226.

For RRIRSRPPRLPRPRPRPACNPRP, the “shrunken log2 fold change” value was -0.285.

RRIRSRPPRLPRPRPRPACSPRP was tested, and the “shrunken log2 fold change” value was 0.147.

RRIRSRPPRLPRPRPRPADLPRP was tested, and the “shrunken log2 fold change” value was 0.274.
